Source: patent US20200023081A1, “SELF-ASSEMBLING CYCLOPEPTIDE-DYE COMPOUNDS, FORMULATIONS THEREOF, AND USES THEREOF” (The Board of Trustees of the Leland Stanford Junior …, priority 2018, published 2020)
Where “and” joins values, the source holds several entries; their conditions need not be identical. Equal values may be shown once.

Columns and labels:
[1] = Liver signal decay after IV injection; assay type: in vivo, BALB/c mice; conditions: BALB/c, mouse, IV 10 nmol, read-out: elimination half-life from liver signal decay curve (converted)
Source text: IV inject 10 nmol CH-RGD NPs into BALB/c mice (n=5). NIR-II fluorescent imaging (10001p, 200 ms) of mice in a supine position were taken 1, 2, 3, 4, 8, 12, 32, 60 days (d) post injection. Of 5 mice, 4 gave the strongest signal 2 days post-injection. One mouse gave it 1 day post-injection. Each liver signal was normalized with the 2 days post-injection intensity. GraphPad Prism 6 one phase decay analysis was used to get the half-life approximately 7.65 d.

[2] = tested on: bone; assay type: in vivo, BALB/c mice
Protocol: FIG. 3A illustrates a supine position, top CH-RGD, bottom CH-RAD 3 h post-injection. 22 nmol CH-RGD or CH-RAD was intravenously injected into 20-25 g hairless BALB/c mice (n=6, 3 males, 3 female). NIR-II imaging (200 ms, 1150LP, 808 nm 140 mW/cm^2 laser excitation) was taken at different time points post-injection (post-injection).
(§1) Teen-week old BALB/c mice (n=3 male and 3 female per group) were obtained from Charles River for bone imaging studies, teen-week old C57BL/6 female mice (n=4 per group) were obtained from Charles River for brain vessel studies, teen-week old NU/NU female mice (n=4 per group) were obtained from Charles River for leg vessel studies, teen-week old BALB/c male mice (n=4 per group) were obtained from Charles River and housed for another 42 weeks for lymph node and lymphatic vessel studies, eight-week old female NU/NU mice (n=3 per group) were obtained from Charles River for tumor targeting studies. Before vessel or tumor imaging, all mice were anaesthetized in a rodent anesthesia machine with 2 l min^−1 O2 gas mixed with 3% Isoflurane. Tail vein injection of contrast agents were carried with a catheter and synchronized with a camera that started continuous image acquisition simultaneously. The IV injected dose was a 200 μL bolus in a 1×PBS solution at specified concentrations. The ID injected dose was a 50 μL bolus in a 1×PBS solution at specified concentrations. During the time course of imaging the mouse was kept anaesthetized by a nose cone delivering 2 l min^−1 02 gas mixed with 3% isoflurane. The sample sizes of mice were selected based on previously reported studies. Mice were randomly selected from cages for all experiments. No blinding was performed.
(§2) Images were processed with ImageJ.

[3] = tested on: metastatic tail bone tumor (143B); assay: Metastatic 143B bone tumor imaging; assay type: in vivo, mice; conditions: ID injection into left hind limb
Protocol: When the orthotopic 143B tumor grows to 3-4 mm diameter, surgery was performed to resect the tumor. Tumor was cut into pieces, and the visible tumor fragments were taken out. Then the surgical wound was sutured. Although the metastasis was not frequently occurring in mice tail, mice tail metastasis is the easiest diagnostic metastasis. By visual inspection, 143B tail metastasis mouse was chosen out. The mouse was used for imaging experiment when the tumor size reach to approximately 1 mm diameter.

[4] = In vitro serum stability in FBS; assay type: in vitro ADME; conditions: 37° C.
Protocol: Fetal Bovine Serum (FBS, Gibco® Catalog #26140) was used to dilute the CH-RGD PBS stock solution into 2 mL, 10 μM mixture solution. And the mixture was incubated at 37° C. in a cell culture incubator for one month. At each designated time point, 200 μL serum mixture were collected for DLS and TEM analysis.

[5] = tested on: orthotopic bone tumors (143B); assay: Orthotopic 143B osteosarcoma imaging; assay type: in vivo, nude mice; conditions: ID injection
Protocol: Eight-week old female nude mice (Charles River) were anaesthetized using 2.0% isoflurane and positioned on a heating pad (42° C.). The shoulder was cleaned with 70% ethanol and betadine. 1×10^6 143B cells were first injected subcutaneously into the shoulder mice and the tumor allowed to grow to a diameter 5-8 mm solid tumor. The tumors were surgical resected and cut into 1×1×1 mm^3 pieces.
The right tibia of 8-week old NU/NU mice was opened in the central part by drilling with a dental drill for a 0.5 mm diameter hole. One tumor fragment was insert into the hole and contact with the bone marrow. Then the surgical wound was sutured. Mice were observed daily for tumor growth. Palpation, micro CT and 3T MRI were used to monitor the tumor growth. The mouse was used for imaging experiment, when the tumor size had reached to 3-5 mm diameter.

[6] = Blood half-life measurement by NIR-II blood signal; assay type: in vivo; conditions: mouse, BALB/c mice
Protocol: Arrows indicate the blood vessel signal.
Half-life: approximately 776 min.

[7] = Photostability under continuous 808 nm laser excitation; assay type: physicochemical; conditions: 45 min continuous laser excitation (0.33 W/cm^2, 808 nm) in water, pH 7.4 PBS, FBS
Source text: The NIR fluorescence spectrum was taken using a home-built NIR spectroscopy setup. The excitation source was a 0.25 W 808 nm laser. The excitation laser was filtered with a combination of an 850/1,000/1,100/1,200/1,300 nm short-pass filters (Thorlabs). The excitation light was allowed to pass through the solution sample in a 1-cm-path-length cuvette (Starna Cells) and the resulting emission filtered through a 900 nm long-pass filter (Thorlabs) to reject the incident excitation laser light. The emitted light was directed into a spectrometer (Princeton Instruments, IsoPlane 160) equipped with a two-dimensional InGaAs array (Princeton Instruments, NIRvana TE 640). Spectra were corrected post-collection to account for the sensitivity of the detector and extinction feature of the filter. Photostability was determined by spiking CH-RGD NPs into FBS, 1× pH 7.4 PBS and DI water, and exposing it in a 1-cm-path-length cuvette (Starna Cells) to continuous 808 nm excitation at a power density of 0.33 W cm^−2 and taking images every 5 mins for approximately 45 min. Stability was determined by measuring the ROI and comparing the fluorescence intensity against the starting fluorescence signal.

[8] = tested on: NIH/3T3 cells; assay: MTT cytotoxicity of CH-RGD NPs; assay type: cell-based
Protocol: The CH-RGD NPs toxicity was determined in vitro with a MTT assay (3-(4,5-dimethylthiazol-2-yl)-2,5-diphenyl tetrazolium bromide, Sigma-Aldrich, St. Louis, Mo.) on NIH/3T3 cells. Approximately 5,000 cells were incubated per well with 200 μL of DMEM growth medium and serially diluted CH-RGD NPs solution (n=6 for each concentration). The cells were kept at 37° C. in a humidified atmosphere containing 5% CO2 for 48 h in the presence of CH-RGD NPs at different concentrations. Immediately before addition of 20 μl of MTT (5 mg/mL), a colorimetric indicator of cell viability, the CH-RGD NPs-spiked medium was removed from each well plate and replaced with 180 μL fresh medium. After 4 h, the medium was carefully removed, 100 μL DMSO was added. Shaking for 10 mins, the color change was quantified using a microplate reader (TECAN Infinite M100) and taking absorbance readings at 570 nm with a reference wavelength of 650 nm. Cell viability was plotted as a fraction of the absorbance of control wells incubated without CH-RGD NPs.

[9] = tested on: U87MG tumor; assay: Double subcutaneous U87MG tumor imaging; assay type: in vivo, nude mice; conditions: IV 10 nmol
Protocol: FIG. 5A is a color photograph of a nude mouse with double xenograft brain tumor (U87MG) located on the left (approximately 1 mm) and right ([…]) shoulder. Intravenous injection of CH-RGD 10 nmol into the double tumor nude mice (n=3). NIR-II imaging (50 ms, 1000LP) at 3 days post-injection was taken at prone (FIG. 5B), right (FIG. 5C) and left (FIG. 5D) lateral decubitus.
The first right shoulder big tumor implantation is the same as above description. The difference is allowed the tumor grow for 2 to 3 weeks. When the right tumor diameter (ø) was between about 1 to 2 mm, 1×10^6 U87MG cells were injected into the mice left shoulder. After about 1 to 2 weeks, when the left shoulder tumor had grown to a diameter of about 1 mm and the right shoulder tumor was approximately 6 mm in diameter, the mouse was used for imaging.
as §2

[10] = literature value; cited from earlier work
[11] = tested on: lymphatic vessels and lymph nodes; assay: Lymphatic vessel and lymph node imaging after ID injection; assay type: in vivo, BALB/c mice
Protocol: FIGS. 4F and 4G show cross-sectional fluorescence intensity profiles taken along red-dashed lines in (FIGS. 4D and 4E). Gaussian fits to the profiles are shown in red dashed curves. Vessel width measurements were taken from Gaussian curves. Lymphatic vessels and lymph node imaging: 3 nmol CH-RGD (FIGS. 4H-4J, 4Q, 4Y), ICG (FIGS. 4K and 4R) and IR800-RGD(s) ID into BALB/c mice (n=4 per probe). NIR-II (50 ms, 1100LP)/NIR-I (100 ms, 814-851BP) imaging was taken 1 h (FIGS. 4H-4J)/(FIG. 4K), 5 h (FIG. 4Q)/FIGS. 4R and 4S), 30 d (FIG. 4U) post ID, injection site (FIG. 4I).
IR800-RGD (3 nmol) was injected intradermally into hair-removed BALB/c mouse (n=4 per probe, male, 1 years old, weight approximately 42 g) tail base. NIR-1 imaging (100 ms, 814 approximately 851 bandpass) was taken 1 h, 3 h, 5 h post-injection. Fluorescent signal appears in mice bladder from 1 h post-injection.
as §1, with “The sample sizes of mice were selected based on previously reported studies. Mice were randomly selected from cages for all experiments. No blinding was performed.” left out

[12] = tested on: blood vessels; assay: Blood vessel imaging (brain, hind limb); assay type: in vivo, mice; conditions: NIR-I imaging
Protocol: FIGS. 4A-4W show blood vessel, lymphatic vessel, and lymph node imaging with CH-RGD (NIR-II), ICG and IR800-RGD (NIR-I). 15 nmol CH-RGD, CH-PEG, ICG, IR800-RGD were IV injected into hairless C57BL/6 mice (FIGS. 4A-4C) or nude mice (FIGS. 4D and 4E). NIR-II (FIGS. 4A, 4B, 4D, 1000 ms, 1350LP) and NIR-I imaging (FIGS. 4C, 4E, 200 ms, 814-851BP) was taken 10 min post-injection. FIGS. 4A-4C, C57BL/6 mice brain vessel images.
as §1, with “The IV injected dose was a 200 μL bolus in a 1×PBS solution at specified concentrations. The ID injected dose was a 50 μL bolus in a 1×PBS solution at specified concentrations. During the time course of imaging the mouse was kept anaesthetized by a nose cone delivering 2 l min^−1 02 gas mixed with 3% isoflurane. The sample sizes of mice were selected based on previously reported studies. Mice were randomly selected from cages for all experiments. No blinding was performed.” left out

[13] = in DCE; cited from earlier work
[14] = tested on: U87MG tumor; conditions: mouse, in vivo, iv
Protocol: (§3) Then NIR-II (200 ms, 1000LP) or NIR-I (200 ms, 814-851BP) images were taken at different time points.
(§4) Nude mice were purchased from Charles River. U87MG cells were cultured in Dulbecco's modified Eagle medium containing high glucose (Gibco), which were supplemented with 10% fetal bovine serum and 1% penicillin-streptomycin. The cell was expanded in tissue culture dish and kept in a humidified atmosphere of 5% CO2 at 37° C. The medium was changed every other day. A confluent monolayer was detached with 0.5% trypsin, and dissociated into a single-cell suspension for inoculation. When the mice reached eight weeks in age, mice were inoculated with 1×10^6 U87MG cells on the right front shoulder. The tumor was allowed to grow for approximately 30 days before imaging, at which point they were approximately 30-120 mm^3 in volume.
(§5) Mice were placed on a stage with a venous catheter for IV injection of contrast and imaging agents. 0.5 mL syringe was used directly for ID injection. All NIR-II images were collected on a 640×512 pixel two-dimensional InGaAs array (Princeton Instruments, NIRvana TE 640). The excitation laser was an 808 nm laser diode at a power density of approximately 140 mW cm^−2. Emission was typically collected with 1000, 1050, 1100, 1150, 1200, 1250, 1300, 1350, 1400 nm LP filter (Thorlabs). 50 mm and 75 mm prime lens (Edmund optics) was used to obtain magnifications ranging of 1× (whole body) to 2.5× (high magnification) magnification by changing the relative position of camera, lens and animals. A binning of 1 and a variable exposure time were used for the InGaAs camera (640×512 pixel) to capture images in the NIR-II window. Images were processed with ImageJ.
(§6) All NIR-I images were collected A 1,344×1,024-pixel Hamamatsu silicon CCD detector (Hamamatsu C8484-03G02; pixel number: 1,344×1,024; readout noise: approximately 7 electron r.m.s.; dark current: 0.01 electrons per second per pixel) with an 814-851 nm bond pass filter (Edmund, #84-107). […]

[15] = tested on: U87MG tumor; assay: Subcutaneous U87MG tumor imaging, IV vs ID
Protocol: as §3, §4, §5, §6

N=C(N)NCCC[C@@H]1NC(=O)[C@H](CCCCNC(=O)CCc2ccc(N(c3ccc(CCC(=O)O)cc3)c3ccc(-c4c5c(c(-c6ccc(N(c7ccc(CCC(=O)O)cc7)c7ccc(CCC(=O)O)cc7)cc6)c6nsnc46)N=S=N5)cc3)cc2)NC(=O)[C@@H](Cc2ccc(O)cc2)NC(=O)[C@H](CC(=O)O)NC(=O)CNC1=O [CH-RGD, CH-c(RGDyk)]
half-life [1]: ~184 h
time BAT could be visualized ([2]; mouse, in vivo): 10 days
time bone signal still visualized, ex-vivo imaging ([2]; mouse, in vivo): up to 45 days
time bone signal still visualized, in vivo imaging ([2]; mouse, in vivo): 3 days
time tumors identified post-injection [3]: 1 days
time NPs stable in FBS before degrading into smaller NPs [4]: up to 2 weeks
time tumor still identifiable [5]: 7 days
half-life [6]: ~12.9 h
photostability [7]: remains stable
toxicity [8]: No obvious toxicity
time of peak fluorescence intensity, large tumor [9]: 4 days
time tumor fluorescence detectable, smaller tumor ([9]; approximately 1 mm tumor): 4 h
time tumor fluorescence detectable, larger tumor ([9]; approximately 6 mm tumor): approximately 0.5 h

CC1(C)C(/C=C/C=C/C=C/C=C2\N(CCCCS(=O)(=O)O)c3ccc4ccccc4c3C2(C)C)=[N+](CCCCS(=O)(=O)[O-])c2ccc3ccccc3c21 [ICG, indocyanine green]
blood half-life [10]: 3 to 5 min
SBR, subiliac lymph node ([11]; 5 h after ID injection): approximately 3
FWHM, subiliac lymph node ([11]; 5 h after ID injection, Gaussian fitting): 2.8 mm and 2.803 mm
width of lymphatic vessels detected ([11]; ID injection): greater than 400 μm
blood vessel detection [12]: only the largest brain blood vessels could be detected

ClC1=C(/C=C/c2cc(-c3ccccc3)[s+]c3ccccc23)CCC/C1=C\C=C1/C=C(c2ccccc2)Sc2ccccc21.[O-][Cl+3]([O-])([O-])[O-] [IR-26]
quantum yield of reference fluorophore [13]: 0.05%

CH-c(RADyk) [CH-RAD]
time of maximum tumor fluorescence and TBR [14]: 1 days
bone accumulation ([2]; after 6 h post-injection): no dramatic accumulation in bone
final concentration in bone by fluorescent intensity, relative to CH-RGD NPs ([2]; mouse, in vivo): about half that of CH-RGD NPs
mean tumor fluorescent intensity ([15]; IV administration): 22 k
ID versus IV injection comparison ([15]; mouse, in vivo, iv): better TBR through ID injection
